Measurements reported in article PMC2172279.

Legend:
Experiment in all cases: co-sedimentation
[1] = biological target: MD2IQ heavy chain (murine myosin V motor domain and the first two IQ motifs) (murine) (UniProt Q99104)
[2] = biological target: dFull heavy chain (expressed full-length murine myosin V) (murine)
[3] = biological target: dHMM heavy chain (dilute heavy meromyosin: six IQ motifs followed by a coiled-coil tail) (murine) (UniProt Q99104)

mol CaM dissociated per mol HC in calcium (mol CaM per mol HC) [1]: 0.5 | mol CaM dissociated per mol HC in calcium (mol CaM per mol HC) [2]: 1.7 | mol CaM dissociated per mol HC in calcium (mol CaM per mol HC) [3]: 1.5
Substance: wild-type calmodulin (WT-CaM) (from UniProt P0DP33 1-149) (natural protein)
